These results are taken from patent publication US20240209080A1, “FOLR1 BINDING AGENTS, CONJUGATES THEREOF AND METHODS OF USING THE SAME” (PROFOUNDBIO US CO., priority 2021, published 2024).

For the assay, the system named is Hela cells. Kind of assay: Flow cytometry binding to Hela cells. Particulars: transfection supernatant, FIG. 1. The method, then:
The binding activity of the antibodies to Hela cells (ATCC® CCL-2, provided by COBIOER) and to RPTEC/TERT1 cells (ATCC® CRL-4031, provided by COBIOER) was tested by flow cytometry using the transfection supernatants. Briefly, target cells were digested with 0.02% EDTA-2Na, centrifuged at 1500 rpm for 3 mins, and resuspended with PBS. After counting, the cells were added to a 1.5 ml centrifuge tube with 1×10^6 cells per tube, centrifuged at 1500 rpm for 5 minutes, and the supernatant was discarded. Then all the operations were carried out on an ice bath. 100 μL of transfection supernatant was added to each 1.5 ml centrifuge tube. Blank cells, blank cells plus secondary antibody, medium and HEK293 supernatant were set up as the controls. The reaction was performed on an ice bath for 1 hour. Then the cells were pelleted and washed twice with PBS. The secondary antibody, goat anti-Human IgG (PE, abcam, ab98596), was diluted (1:200) and added using 100 μL per tube. The reaction was performed on an ice bath for 1 hour in the dark. The cells were pelleted again and washed twice with PBS, resuspended in 300 μL PBS, and FL2 fluorescence readings were measured by cytometry. The results were analyzed by FlowJoTM10 software.
Anti-FOLR1 antibody binding to Hela and RPTEC/TERT1 cells was tested by FACS. The study was carried out as described above. […]
A general note: A flow cytometer gives signals particle by particle.

B1: F40: fully human anti-FOLR1 antibody (IgG1), VH SEQ ID NO:9, VL SEQ ID NO:10 (antibody, V domains shown)
VH: EVQLLESGGGVVQPGRSLRLSCAASGFTFSSYAMHWVRQAPGKGLEWVAVISYDGSNKYYADSVKGRFIISRDNSKNTVYLQMNSLRAEDTAVYYCARPTYVFTYTGSSFDYWGQGTQVTVSS
VL: DIQVTQSPSSLSASLGDTVSITCRASRGLTDSVAWYQQKPGQAPKLLIYAASTLQSGVPSRFGGSGSGSYFTLTITSLQPEDVATYYCQNYKSAPWTFGQGTKVEIK
modifications: Synthetic F40 VH amino acid sequence; Synthetic F40 VL amino acid sequence
Take B1: the “Hela cell binding (in words)” value is “weakly positive”.
